Source: IntAct's records for PubMed 10921873

Tests used:
copb_yeast SEC26 [1] = target: copb_yeast SEC26 (UniProt P41810)
cope_yeast SEC28 [2] = target: cope_yeast SEC28 (UniProt P40509)
glo3_yeast GLO3 [3] = target: glo3_yeast GLO3 (UniProt P38682)
gcs1_yeast GCS1 [4] = target: gcs1_yeast GCS1 (UniProt P35197)
copb_yeast SEC26 [5] = target: copb_yeast SEC26 (UniProt P41810); remark: listed apart in the source
cope_yeast SEC28 [6] = target: cope_yeast SEC28 (UniProt P40509); remark: listed apart in the source
glo3_yeast GLO3 [7] = target: glo3_yeast GLO3 (UniProt P38682); remark: listed apart in the source
gcs1_yeast GCS1 [8] = target: gcs1_yeast GCS1 (UniProt P35197); remark: listed apart in the source

Measured: effect of a mutation on the interaction

ADP-ribosylation factor 1 (Homo sapiens), P84077 Q71L, sequence (P84077 whole entry Q71L): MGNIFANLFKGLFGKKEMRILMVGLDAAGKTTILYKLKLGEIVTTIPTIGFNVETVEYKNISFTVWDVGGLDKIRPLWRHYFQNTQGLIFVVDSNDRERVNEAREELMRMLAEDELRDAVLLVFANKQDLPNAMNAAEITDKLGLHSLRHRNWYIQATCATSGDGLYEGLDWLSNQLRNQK
gcs1_yeast GCS1, sequence (P35197 whole entry): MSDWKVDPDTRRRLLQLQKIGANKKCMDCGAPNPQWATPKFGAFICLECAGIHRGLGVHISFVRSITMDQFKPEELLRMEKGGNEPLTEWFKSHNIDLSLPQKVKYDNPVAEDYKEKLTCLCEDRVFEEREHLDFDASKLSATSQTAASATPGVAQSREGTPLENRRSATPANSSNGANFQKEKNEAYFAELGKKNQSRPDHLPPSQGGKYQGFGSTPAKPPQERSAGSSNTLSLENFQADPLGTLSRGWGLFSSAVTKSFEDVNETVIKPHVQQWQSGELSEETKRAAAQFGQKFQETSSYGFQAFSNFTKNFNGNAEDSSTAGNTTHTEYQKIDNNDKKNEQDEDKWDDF
cope_yeast SEC28, sequence (P40509 whole entry): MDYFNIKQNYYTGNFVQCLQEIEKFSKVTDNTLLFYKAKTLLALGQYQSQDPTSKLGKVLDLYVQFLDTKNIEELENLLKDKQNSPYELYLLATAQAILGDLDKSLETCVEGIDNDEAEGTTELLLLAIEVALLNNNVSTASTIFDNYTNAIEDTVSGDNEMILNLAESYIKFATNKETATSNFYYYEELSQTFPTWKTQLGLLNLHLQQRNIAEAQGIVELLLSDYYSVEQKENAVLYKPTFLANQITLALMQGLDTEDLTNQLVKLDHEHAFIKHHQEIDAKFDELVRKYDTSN
copb_yeast SEC26, sequence (P41810 whole entry): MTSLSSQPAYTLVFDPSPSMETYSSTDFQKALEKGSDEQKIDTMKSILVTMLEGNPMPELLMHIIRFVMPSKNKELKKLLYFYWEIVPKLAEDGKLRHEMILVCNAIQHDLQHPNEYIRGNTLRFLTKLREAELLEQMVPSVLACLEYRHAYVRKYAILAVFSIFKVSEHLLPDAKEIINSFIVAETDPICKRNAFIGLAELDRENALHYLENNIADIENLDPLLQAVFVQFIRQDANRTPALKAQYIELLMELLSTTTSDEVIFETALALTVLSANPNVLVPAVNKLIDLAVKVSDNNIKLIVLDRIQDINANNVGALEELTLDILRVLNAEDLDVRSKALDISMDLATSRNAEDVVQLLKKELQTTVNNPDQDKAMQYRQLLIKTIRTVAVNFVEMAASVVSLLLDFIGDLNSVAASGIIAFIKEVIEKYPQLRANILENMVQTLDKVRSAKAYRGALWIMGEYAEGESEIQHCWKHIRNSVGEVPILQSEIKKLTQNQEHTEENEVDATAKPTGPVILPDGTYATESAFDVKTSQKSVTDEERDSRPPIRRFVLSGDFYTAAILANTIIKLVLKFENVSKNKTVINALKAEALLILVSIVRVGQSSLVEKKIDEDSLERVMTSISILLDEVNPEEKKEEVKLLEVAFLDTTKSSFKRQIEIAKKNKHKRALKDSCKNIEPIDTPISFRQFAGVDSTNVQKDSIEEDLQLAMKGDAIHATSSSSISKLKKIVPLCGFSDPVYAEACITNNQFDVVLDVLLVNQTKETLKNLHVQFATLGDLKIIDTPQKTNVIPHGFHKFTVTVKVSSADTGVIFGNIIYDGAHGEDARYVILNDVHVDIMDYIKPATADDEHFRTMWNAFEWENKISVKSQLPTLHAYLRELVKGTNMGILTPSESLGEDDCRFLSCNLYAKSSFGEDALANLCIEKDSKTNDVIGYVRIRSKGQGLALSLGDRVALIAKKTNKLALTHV
glo3_yeast GLO3, sequence (P38682 whole entry): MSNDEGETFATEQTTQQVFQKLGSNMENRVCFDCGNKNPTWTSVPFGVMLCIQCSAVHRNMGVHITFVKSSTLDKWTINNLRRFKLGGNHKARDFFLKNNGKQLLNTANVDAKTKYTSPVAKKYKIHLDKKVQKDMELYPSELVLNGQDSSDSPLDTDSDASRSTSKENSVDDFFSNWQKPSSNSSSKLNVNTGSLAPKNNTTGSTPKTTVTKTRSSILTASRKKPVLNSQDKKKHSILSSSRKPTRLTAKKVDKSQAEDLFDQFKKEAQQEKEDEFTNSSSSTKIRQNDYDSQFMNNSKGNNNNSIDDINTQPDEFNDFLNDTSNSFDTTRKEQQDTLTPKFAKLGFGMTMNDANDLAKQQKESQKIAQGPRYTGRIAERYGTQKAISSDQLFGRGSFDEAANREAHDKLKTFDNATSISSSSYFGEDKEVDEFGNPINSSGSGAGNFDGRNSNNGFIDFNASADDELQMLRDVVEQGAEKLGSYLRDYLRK

ADP-ribosylation factor 1 (Homo sapiens), P84077 N126I
increasing interaction: copb_yeast SEC26 [1] | cope_yeast SEC28 [2] | glo3_yeast GLO3 [3] | gcs1_yeast GCS1 [4]

ADP-ribosylation factor 1 (Homo sapiens), P84077 Q71L
increasing interaction: copb_yeast SEC26 [5] | cope_yeast SEC28 [6] | glo3_yeast GLO3 [7] | gcs1_yeast GCS1 [8]
